Measured values reported in patent US8710008B2, “Compounds, compositions and use” (Universitetet I Oslo, priority 2008, dated 2014).
Like-named read-outs stand apart in the source and are kept apart here. Positions of bridges follow the written chain, without caps; N, C: chain ends. *: point of attachment. Boc = CC(C)(C)OC(=O)*

What was measured:
AQP4 [1] = biological target: T1, AQP4 (Homo sapiens, UniProt P55087); settings: cited from earlier work
AQP1 = biological target: T2, AQP1 (Homo sapiens, UniProt P29972); settings: cited from earlier work
T2 sequence (P29972 1-269): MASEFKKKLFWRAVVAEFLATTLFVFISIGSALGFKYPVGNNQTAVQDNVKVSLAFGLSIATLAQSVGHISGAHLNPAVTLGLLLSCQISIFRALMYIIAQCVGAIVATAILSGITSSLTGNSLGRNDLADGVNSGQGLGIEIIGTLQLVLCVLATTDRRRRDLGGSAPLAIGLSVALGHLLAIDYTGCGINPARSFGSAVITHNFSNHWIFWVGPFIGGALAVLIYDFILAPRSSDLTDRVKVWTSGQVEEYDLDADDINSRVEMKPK

[2] = tested on: crude membranes from rat cerebellum; assay: Radioligand binding assay of [3H]peptide on crude membranes from rat cerebellum
Protocol: The radiolabelled compound denoted [3H]peptide was custom synthesised from the unsaturated precursor 29 (Example 27) by Perkin Elmer Health Sciences Inc., 549 Albany Street, Boston, Mass. 02118, U.S.A. The radioactive compound was received as an EtOH solution. The total activity of the sample was 1 mCi. and the radiological concentration was 2 mCi/mL. The specific activity was 42.9 Ci/mmol and the radiochemical purity (determined by HPLC) 99.8%. The specific activity was determined by mass spectrometry.
Female Wistar rats weighing 250-300 g (Mollegaard, Ejby, Denmark) were used. Experimental protocols conform to National Institutes of Health guidelines for the care and use of animals.
Brain cerebella (1:5 wt/vol) in ice cold 0.3 M sucrose, 50 mM Hepes, pH 7.4, 2 mM EDTA, protease inhibitors (Complete; Roche, Mannheim, Germany) were homogenised in clay-beads-containing tubes by Fastprep shaker and centrifuged at 1,000 g for 10 min at 4° C. The supernatant was spun down at 42,000 g for 60 min at 4° C. […] Protein concentration was determined by the DC Protein Assay Kit (Bio-Rad). […]
Binding data were analysed by non-linear regression using Microsoft Excel with the Solver add-in. The non-specific binding was assumed to be linear as a function of the concentration of free [^3H]peptide and analysed by linear regression. […]

AQP4 [3] = biological target: T1, AQP4; settings: liposome-based assay; cited from earlier work
[4] = biological target: crude membranes from rat cerebellum (rat); assay: radioligand saturation binding, filter assay, crude membranes
[5] = biological target: crude membranes from rat cerebellum (rat); assay: radioligand saturation binding, non-linear regression, unweighted fit
[6] = biological target: crude membranes from rat cerebellum (rat); assay: radioligand saturation binding, non-linear regression, fit weighted 1/Y
[7] = biological target: crude membranes from rat cerebellum (rat); assay: radioligand saturation binding, non-linear regression, fit weighted 1/Y^2

T1 sequence (P55087 whole entry, species assumed): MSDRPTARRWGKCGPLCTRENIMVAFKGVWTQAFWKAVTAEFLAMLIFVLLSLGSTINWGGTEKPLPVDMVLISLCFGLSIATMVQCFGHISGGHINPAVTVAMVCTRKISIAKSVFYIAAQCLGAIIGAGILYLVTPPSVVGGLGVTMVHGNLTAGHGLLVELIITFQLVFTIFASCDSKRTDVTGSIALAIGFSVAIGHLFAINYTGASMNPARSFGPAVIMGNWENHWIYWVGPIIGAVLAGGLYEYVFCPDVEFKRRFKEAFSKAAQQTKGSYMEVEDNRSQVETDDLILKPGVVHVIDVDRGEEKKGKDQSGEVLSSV

Molecule: CC[N+](CC)(CC)CC [tetraethylammonium ions, tetraethylammonium]
- Effect on AQP4 (AQP4 [1]; up to 10 mmolar concentration, B. Yang et al. 2006): no effect
- Effect on AQP1 (AQP1; R. Søgaard et al. 2008): no effect

Molecule: CC(=O)Nc1nnc(S(N)(=O)=O)s1 [Acetazolamide]
- Effect on water permeation through AQP4 (AQP4 [1]; Y. Tanimura et al. 2009): reversibly inhibits
- IC50 (AQP4 [1]; Y. Tanimura et al. 2009, read-out: IC50 of inhibition of water permeation through AQP4): > 1000 µM
- Effect on water permeation through AQP1 (AQP1; Y. Tanimura et al. 2009): not through AQP1

Molecule: [^3H]peptide: radiolabelled compound custom synthesised from the unsaturated precursor 29 (Example 27); specific activity 42.9 Ci/mmol (Boc-PPSVVSG-OMe; bridge 3-6; not fully specified (bridges); also: tritium label)
- Specific binding ([2]; difference without and with 100 μM unlabelled peptide): 0.5-1 pmol/mg membrane protein
- Kd ([2]; specific binding, non-specific defined with 100 μM unlabelled peptide, read-out: Kd value (affinity)): 0.1 to 0.2 µM

Molecule: [Cl][Hg][Cl] [mercury chloride]
- Effect on AQP4 (AQP4 [3]): inhibit AQP4

Molecule: Boc-PPSVVSG-OMe (bridge 3-6; also: tritium label)
- Kd [4]: 0.1 to 0.2 µM
- specific binding (Bmax) (pmol/mg membrane protein) [4]: 0.5 to 1
- Bmax [5]: 2140 cpm
- Bmax (fmol/mg protein) [5]: 1120
- Kd [5]: 0.107 µM
- Bmax [6]: 1920 cpm
- Bmax (fmol/mg protein) [6]: 1000
- Kd [6]: 0.0927 µM
- Bmax [7]: 1920 cpm
- Bmax (fmol/mg protein) [7]: 1000
- Kd [7]: 0.0927 µM
